Experimental data reported in article PMC1278935, “Different Catalytic Mechanisms in Mammalian Selenocysteine- and Cysteine-Containing Methionine-R-Sulfoxide Reductases” (PLoS Biology, 2005).

Test system: T1, CN(C)c1ccc(N=Nc2ccc(S(=O)(=O)N[C@@H](CC[S@@+](C)[O-])C(=O)O)cc2)cc1
T1 construct: full-length mouse MsrB2, C-terminal His tag (LEHHHHHH), E. coli BL21(DE3), monomer
Test: HPLC of dabsyl-Met, Lineweaver-Burk
Type: biochemical, Mus musculus
Conditions: 20 mM DTT, 50 mM sodium phosphate pH 7.5, 50 mM NaCl, 37 °C, from E. coli
Excerpt: HPLC of dabsyl-Met, Lineweaver-Burk on MsrB2

Sequence of MsrB2 (Mus musculus; V149E) (chain, as listed by the source V149E): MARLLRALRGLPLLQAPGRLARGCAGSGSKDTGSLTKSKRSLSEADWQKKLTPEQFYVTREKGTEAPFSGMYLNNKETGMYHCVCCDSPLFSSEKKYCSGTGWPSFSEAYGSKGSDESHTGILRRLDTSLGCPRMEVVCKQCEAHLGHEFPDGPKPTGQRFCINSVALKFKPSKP
Sequence of MsrB2 (Mus musculus; H119G) (chain, as listed by the source H119G): as the sequence (chain, as listed by the source V149E) above, with H119G, E149V counted along it
Sequence of MsrB2 (Mus musculus) (chain, as listed by the source): as the sequence (chain, as listed by the source V149E) above, with E149V counted along it

Substance	Km (MsrB1 numbering)	kcat (MsrB1 numbering)	Km	kcat
MsrB2 (Mus musculus; H119G)	340 ± 60 µM	0.0083 ± 0.0017 s⁻¹		
MsrB2 (Mus musculus; V149E)	140 ± 40 µM	0.0933 ± 0.012 s⁻¹		
MsrB2 (Mus musculus)			310 ± 100 µM	0.458 ± 0.0633 s⁻¹
